The target of this test is T1, FLAGタグとイヌCD20の融合タンパク (Jurkat/cCD20 に過剰発現) (イヌ (dog), UniProt Q3C2E2 1-297).
T1 construct: whole, on cells; Overexpressed in Jurkat cells by retroviral transduction (pMx-IP); Used whole on cells for flow cytometry and as 1% NP40 cell lysate for immunoprecipitation; also called canine CD20-FLAG; not shown: FLAG tag added at the C-terminus
T1 sequence (looked up): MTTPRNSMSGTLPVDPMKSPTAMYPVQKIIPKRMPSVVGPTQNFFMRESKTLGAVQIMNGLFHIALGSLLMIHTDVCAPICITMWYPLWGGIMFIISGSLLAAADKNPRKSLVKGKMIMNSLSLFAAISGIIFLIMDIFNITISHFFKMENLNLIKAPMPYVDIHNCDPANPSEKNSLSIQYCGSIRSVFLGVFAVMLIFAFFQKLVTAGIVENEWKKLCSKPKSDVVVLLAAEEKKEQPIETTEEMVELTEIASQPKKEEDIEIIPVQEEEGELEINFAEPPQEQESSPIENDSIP
The experiment in a line: flow cytometry on Jurkat/cCD20 cells, secondary antibody. For orientation: Flow cytometry measures light scatter and fluorescence of single cells or particles in a stream.

Here are results for 1 molecule from JP2019026625A (dated 2019).

B1: 4E1-7抗体 (イヌCD20に対するラットモノクローナル抗体) (antibody, V domains shown)
VH: EVQLVESGGGLVQPGASLKLSCVASGFTFNDYWMSWVRQTPGKTMEWIGDIKYDGSYTNYAPSLKNRFTISRDNAKSTLYLQMSNVRSEDTATYYCTREAYYYSGDYWGQGVMVTVSS
VL: DIVLTQSPALAVSLGQRATISCKTNQNVDYYGNSYMHWYQQKPGQQPKLLIYLASNLASGIPARFSGRGSGTDFTLTIDPVEADDTATYYCQQSRNLPYTFGAGTKLELKR
notes: also called 4E1-7 antibody
For B1, the binding result is “binds”.
